# Test results as given in paper PMC4624675 (2015).
# Biological target: C-terminal Tandem UBL domain of human USP7 (TUD^USP7), wild type (human)
# Assay: ITC
# Sequence of C-terminal Tandem UBL domain of human USP7 (TUD^USP7), wild type (human) (chain, as listed by the source): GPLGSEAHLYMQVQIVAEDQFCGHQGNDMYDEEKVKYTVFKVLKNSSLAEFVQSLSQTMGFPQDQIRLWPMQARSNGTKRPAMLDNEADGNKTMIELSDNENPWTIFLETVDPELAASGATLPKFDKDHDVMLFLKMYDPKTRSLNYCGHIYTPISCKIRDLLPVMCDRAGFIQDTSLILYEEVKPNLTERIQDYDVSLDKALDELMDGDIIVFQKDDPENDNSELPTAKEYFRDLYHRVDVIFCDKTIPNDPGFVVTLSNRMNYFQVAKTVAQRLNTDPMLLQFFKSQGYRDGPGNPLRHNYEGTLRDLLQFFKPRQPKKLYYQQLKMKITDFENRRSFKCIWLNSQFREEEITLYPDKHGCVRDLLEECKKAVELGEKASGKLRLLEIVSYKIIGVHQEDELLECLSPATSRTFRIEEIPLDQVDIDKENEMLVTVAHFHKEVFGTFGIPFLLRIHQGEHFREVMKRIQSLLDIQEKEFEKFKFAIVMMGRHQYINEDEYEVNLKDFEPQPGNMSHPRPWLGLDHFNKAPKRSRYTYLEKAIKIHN
row,Binder,Kd [nM]
1,KGKGKGKGKGKP [KG-Linker of DNMT1 (GST pull-down bait)],3720
2,TGKGKWKRKSAGGGPSRAGSPRRTSKKTKVEPY [UHRF1 (642–674) (GST pull-down bait)],1540
3,"SGPRGPRKCARKTRHAETSGA [GST-tagged ICP0 (613–633), wild type]",270
